In publication PMC3909815 (Molecular imaging and biology : MIB : the official …, 2012):

Key:
[1] = tested on: mice; assay: Toxicity of pHe marker in mice; type: in vivo, mouse; settings: 7 mmol/kg i.p.
[2] = tested on: PC-3 tumour; assay: Biodistribution/pHe modulation study; type: in vivo, mouse; settings: PC-3, 24 h p.i., bicarbonate per os 5 days; P=0.053; 95% CI 0%, 51%
[3] = tested on: LNCaP tumour; assay: Biodistribution/pHe modulation study; type: in vivo, mouse; settings: 24 h p.i., bicarbonate per os 5 days, P=0.020, 95% CI 10%, 42%
[4] = Radiochemical purity of the preparation over time; type: physicochemical; settings: measured ≈24 h p.i., preparation used for SPECT imaging
[5] = 60 min p.i., i.v., mean±SD of 2 independent studies
[6] = Biodistribution of 99mTc-AH114567 in tumoured mice

Row | Molecule | toxicity for mice [1] | tumour uptake ratio (uptake difference with bicarbonate relative to standard) [2] | tumour uptake ratio (uptake difference with bicarbonate relative to standard) [3] | radiochemical purity (RCP) of the preparation [4] | integrated radio-HPLC signal of the parent compound in rat plasma [5] | lung/blood uptake ratio at 4 h p.i. ([6]; 4 h p.i.) | lung/blood uptake ratio at 24 h p.i. ([6]; 24 h p.i.) | kidney uptake at 24 h p.i. ([6]; 24 h p.i., C57BL/6 mice) | blood uptake at 24 h p.i. ([6]; 24 h p.i., all three models) | lung/blood uptake ratio, initial ([6]; initially) | uptake in liver ([6]; over the first 24 h p.i., liver+gall bladder, LLC tumoured C57BL/6 mice) | skin uptake ([6]; range over time points) | uptake in bone ([6]; typically)
1 | CCOP(=O)(OCC)C1(C)CCCN1 (stereo not shown) | toxic | – | – | – | – | – | – | – | – | – | – | – | –
2 | ACEQNPIY{WARYADWLFTTPLLLLDLALLV}DADEGTG [99mTc-AH114567] | – | 29% | 29% | ≥ 85% | 86±6% | ≈ 2 | ca. 1 | ~3 % ID | 1 to 2 % ID/g | ≈ 3 | 25 to 15 % ID | 3 to 8 % ID | 2 to 3 % ID
